Measured values published in paper PMC6955223, “The adaptor proteins HAP1a and GRIP1 collaborate to activate the kinesin-1 isoform KIF5C” (Journal of Cell Science, 2019).

Molecular target: T1, KIF5C–Halo (UniProt P28738 1-956, HaloTag TMR ligand on the HaloTag)
T1 construct: kinesin-1 heavy chain KIF5C; construct from Twelvetrees et al., 2016; also called KIF5C labelled with HaloTag TMR ligand; motor; source: COS cells, transfected, in lysate
T1 sequence (looked up): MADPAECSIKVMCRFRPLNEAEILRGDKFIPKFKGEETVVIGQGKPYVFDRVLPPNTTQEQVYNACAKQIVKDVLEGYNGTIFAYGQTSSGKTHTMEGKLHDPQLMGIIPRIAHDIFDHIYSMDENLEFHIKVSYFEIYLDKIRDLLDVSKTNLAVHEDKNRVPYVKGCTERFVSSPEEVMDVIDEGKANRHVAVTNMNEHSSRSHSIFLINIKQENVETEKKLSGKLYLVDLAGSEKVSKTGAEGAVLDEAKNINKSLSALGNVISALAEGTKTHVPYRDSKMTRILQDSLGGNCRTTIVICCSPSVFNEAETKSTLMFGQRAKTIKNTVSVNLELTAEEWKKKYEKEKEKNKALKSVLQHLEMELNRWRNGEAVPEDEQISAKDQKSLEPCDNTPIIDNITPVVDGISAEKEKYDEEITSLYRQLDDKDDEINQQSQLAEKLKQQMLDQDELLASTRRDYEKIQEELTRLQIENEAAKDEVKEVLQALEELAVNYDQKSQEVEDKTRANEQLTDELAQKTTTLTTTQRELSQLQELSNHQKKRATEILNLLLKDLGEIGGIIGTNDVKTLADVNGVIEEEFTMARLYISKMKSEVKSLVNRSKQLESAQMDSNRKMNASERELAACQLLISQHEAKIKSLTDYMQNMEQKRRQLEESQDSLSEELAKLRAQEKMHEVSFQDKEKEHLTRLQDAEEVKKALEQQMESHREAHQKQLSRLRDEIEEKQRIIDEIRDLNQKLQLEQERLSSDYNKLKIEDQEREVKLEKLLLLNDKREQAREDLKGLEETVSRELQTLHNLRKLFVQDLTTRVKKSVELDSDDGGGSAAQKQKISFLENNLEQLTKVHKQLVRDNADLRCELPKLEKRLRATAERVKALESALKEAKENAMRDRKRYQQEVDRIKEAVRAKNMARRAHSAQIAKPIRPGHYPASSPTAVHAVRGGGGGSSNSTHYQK
Assay: counting of GFP photobleaching steps (TIRFM); motor–adaptor complexes from mixed cell lysates immobilised on microtubules with 15 mM AMP-PNP instead of ATP; GFP-labelled HAP1a and GRIP1 both present; bleaching steps counted for each spot
Conditions: partners not purified

B1: GFP-labelled HAP1a (natural protein, rat, UniProt P54256-2 1-599, looked up)
chain: MRPKDQVQSSAGDGTGSGDPATGTPTTQPAADPAPEPSAEPKPAPAQGTGSGQKSGSRTKTGGSFCRSRIRGDSDAPWTRYIFQGPYGPRATGLGTGRAEGIWKTPAAYIGRRPGVSGPERAAFIRELQEALCPNPLPRKKITEDDIKVMLYLLEEKERDLNTAARIGQSLVKQNSVLMEENNKLETMLGSAREEILHLRKQVNLRDDLLQLYSDSDDDEEDEEDEEEEEGEEEEREGQRDQDQQHDHPYGAPKPPPKAETLHHCPQLEALKQKLKLLEEENDHLREEASHLDNLEDKEQMLILECVEQFSEASQQMAELSEVLVLRLEGYERQQKEITQLQAEITKLQQRCQSYGAQTEKLQQQLASEKGVHPESLRAGSHMQDYGSRPRERQEDGKSHRQRSSMPAGSVTHYGYSVPLDALPSFPETLAEELRTSLRKFITDPAYFMERCDTRCREERKKEQGTMPPPPVQDLKPPEDFEAPEELVPEEELGAIEEVGTAEDGPAEETEQASEETEAWEEVEPEVDEATRMNVVVSALEASGLGPSHLDMKYVLQQLSNWQDAHSKRQQKQKVVPKGECSRRGHPPASGTSYRSSTL
notes: huntingtin-associated protein 1, rodent isoform HAP1a; Construct not described in the methods; named only in the sentence on photobleaching; source: cell lysate (COS cells as for the motility assay)
  stoichiometry N: 2 HAP1a molecules per motor
